Results reported in IntAct's records for PubMed 17380122.

B1: Regulator of G-protein signaling 12 (Mus musculus), Q8CGE9 (parent)
chain: MYRAGEPGKRQPGPAPPRVRSVEVARGRAGYGFTLSGQAPCVLSCVMRGSPADFVGLRAGDQILAINEINVKKASHEDVVKLIGKCSGVLHMVIAEGTSHVESCSSDEEGGLYEGKGWLRPKLDSKALGINRAERVVEEVQSGGIFNMIFESSSLCASGPEPLKLKQRSLSESAALRLDAGQAGLCAPHPSMLSKEDISKVINDDSVFTVGLDSHDDFGLDASILNVAMVVGYLGSIELPSTSSNLEHDSLQAIRGCMRRLRAEQKIHSLVTMKVMHDCVQLVTDRAGVVAEYPAEKLAFSAVCPDDRRFFGLVTMQTNDDGGLAQEDEGALRTSCHVFMVDPDLFHHKIHQGIARRFGFACTADPDTSGCLEFPASSLPVLQFISVLYRDMGELIEGVRARAFLDGDADAHQNNSTSSNSDSGIGNFNQEEKSNRVLVVDLGGGSSRHGQGSSPGWESGGGRGSQPWSAPWNGAFCHDSEAGSPLETSPNTDRFWDLTKHSGPVSHMEVPPATLRSSIPPSKRGAAGSSCGFNQRWLPVHVLQEWQCGHASDQESYTDSTDGWSSVNCGTLPPPMSKIPADRYRVEGSFAQAPLSTQKRDWSRKAFGMQNLFGPHRNVRKTKEDKKSSKLGRGVALAQTSQRTSARRSFGRSRRFSITRSLDDLESATVSDGELTGADLKDCISNNSLSSNASLPSVQSCRRLRERRVASWAVSFERLLQDPVGVRYFSDFLRKEFSEENILFWQACECFSHVPAHDKKELSYRAREIFSKFLCSKATTPVNIDSQAQLADDILNAPHPDMFKEQQLQIFNLMKFDSYTRFLKSQLYQECVLAEVEGRTLPDSQQVPSSPASKHSISSDHSNVSTPKKLSGKSKSGRSLNEDVGEEDSEKKRRGAFFSWSRSRSTGRSQKKKDHGDHAHDAPHANGGLCRRESQGSVSSAGSLDLSEACRTSALEKDKAAKHCCVHLPDGTSCVVAVKSGFSIKEILSGLCERHGINGAAVDLFLVGGDKPLVLHQDSSILATRDLRLEKRTLFRLDLVPINRSVGLKAKPTKPVTEVLRPVVAKYGLDLGSLLVRLSGEKEPLDLGAPISSLDGQRVILEERDPSRGKVSTDKQKGAPVKQNSAVNSSPRNHLAMGEERTLGKSNSIKIRGENGKSARDPRLSKREESIAKIGKKKYQKINLDEAEEFFELISKAQSNRADDQRGLLRKEDLVLPEFLRLPAGSSELALSSPPPVKGYSKRAVTGHGQEGAAQTEESYSDSPATSPASAQSPCSAYSPGSAHSPGSAHSTPGPPGTTQPGEKPTKPSCVSMVQEGTTQAWRRLSPEMEAGGIQTVEDEQVADLTLMGEGDISSPNSTLLPPPPTPQDTPGPPRPGTSRF

Variants of: B1
Conditions: with rash_rat Hras

Row | effect of a mutation on the interaction | Variant
1 | decreasing interaction | H995L

Variants of: B1
Conditions: with rasn_rat Nras

Row | effect of a mutation on the interaction | Variant
2 | decreasing interaction | H995L
